The values that follow are results of earlier work, collected in publication PMC11346460.

This data set deals with RIG-I (Homo sapiens) (UniProt O95786).
UniProt O95786, sequence (O95786 whole entry): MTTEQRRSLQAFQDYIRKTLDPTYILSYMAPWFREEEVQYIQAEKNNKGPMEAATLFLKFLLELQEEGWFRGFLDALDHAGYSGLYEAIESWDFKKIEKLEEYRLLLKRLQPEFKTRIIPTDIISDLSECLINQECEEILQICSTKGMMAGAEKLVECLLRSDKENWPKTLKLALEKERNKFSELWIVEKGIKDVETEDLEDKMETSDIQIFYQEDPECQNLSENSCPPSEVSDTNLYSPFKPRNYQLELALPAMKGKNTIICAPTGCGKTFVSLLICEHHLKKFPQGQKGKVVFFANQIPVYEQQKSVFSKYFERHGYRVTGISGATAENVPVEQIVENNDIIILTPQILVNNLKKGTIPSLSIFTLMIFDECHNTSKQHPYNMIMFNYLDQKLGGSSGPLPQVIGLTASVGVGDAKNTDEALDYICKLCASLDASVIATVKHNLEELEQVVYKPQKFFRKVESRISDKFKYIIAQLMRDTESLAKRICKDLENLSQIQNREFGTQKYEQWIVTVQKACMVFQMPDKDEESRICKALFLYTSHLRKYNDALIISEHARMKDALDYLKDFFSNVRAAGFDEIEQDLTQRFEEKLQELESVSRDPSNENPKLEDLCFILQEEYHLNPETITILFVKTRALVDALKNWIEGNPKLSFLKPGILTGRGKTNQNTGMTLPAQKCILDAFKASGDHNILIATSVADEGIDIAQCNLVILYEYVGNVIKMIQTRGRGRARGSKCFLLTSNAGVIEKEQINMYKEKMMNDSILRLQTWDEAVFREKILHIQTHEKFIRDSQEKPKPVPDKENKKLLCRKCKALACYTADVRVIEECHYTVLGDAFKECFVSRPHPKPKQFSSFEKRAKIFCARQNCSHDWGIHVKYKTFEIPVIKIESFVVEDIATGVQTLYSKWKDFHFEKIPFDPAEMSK

As to RIPLET (from UniProt Q8IUD6), the Kd (in general, a measure of binding affinity in units of concentration) was 6.6 nM.
